Laboratory results as given in paper doi:10.1101/2025.06.29.662183.
pKd: −log10 of the molar value.

Molecular target: CHIKV nsP2 protease (Chikungunya virus)
Assay: BLI

pantinin-1 (peptide)
pKd: 5.03
